From PMC6945063 (2019) come the findings set out here.

This assay has as its target His‐GABARAP‐L2 S87/88D (human, UniProt P60520 1-117, S87/88D | S87/88D). Put plainly: BLI. (In general: BLI is a label-free optical method that tracks binding on a fibre tip over time.)

B1: GST‐ATG4A (enzyme)
chain: MESVLSKYEDQITIFTDYLEEYPDTDELVWILGKQHLLKTEKSKLLSDISARLWFTYRRKFSPIGGTGPSSDAGWGCMLRCGQMMLAQALICRHLGRDWSWEKQKEQPKEYQRILQCFLDRKDCCYSIHQMAQMGVGEGKSIGEWFGPNTVAQVLKKLALFDEWNSLAVYVSMDNTVVIEDIKKMCRVLPLSADTAGDRPPDSLTASNQSKGTSAYCSAWKPLLLIVPLRLGINQINPVYVDAFKECFKMPQSLGALGGKPNNAYYFIGFLGDELIFLDPHTTQTFVDTEENGTVNDQTFHCLQSPQRMNILNLDPSVALGFFCKEEKDFDNWCSLVQKEILKENLRMFELVQKHPSHWPPFVPPAKPEVTTTGAEFIDSTEQLEEFDLEEDFEILSV
Regarding B1, the affinity, expressed as Kd, was 24 µM.

Usually Kd stands for the free concentration of one partner at which half of the binding sites on the other are occupied at equilibrium, for simple one-to-one binding. Lower therefore signals higher affinity.
